{
  "source": "a protein production outcome set (Wang et al. 2014)",
  "data": [
    {"assay": "label from the status in PepcDB records", "values": [
      {"sequence": "MPIIIDKDLPARKVLQEENIFVMTKERAETQDIRALKIAILNLMPTKQETEAQLLRLIGNTPLQLDVHLLHMESHLSRNVAQEHLTSFYKTFRDIENEKFDGLIITGAPVETLSFEEVDYWEELKRIMEYSKTNVTSTLHICWGAQAGLYHHYGVQKYPLKEKMFGVFEHEVREQHVKLLQGFDELFFAPHSRHTEVRESDIREVKELTLLANSEEAGVHLVIGQEGRQVFALGHSEYSCDTLKQEYERDRDKGLNIDVPKNYFKHDNPNEKPLVRWRSHGNLLFSNWLNYYVYQETPYVL", "protein production": "not failed"},
      {"sequence": "MPIIKSSRVNIGRFTIGGSIPIVIISIFDHDAKSLTEKFETKKLSDKNLYEIRFDLFDKVNIDEELEIIRALDEMDIDYIFTYRGHDPEKIYETAITKMVPAVDMDLSLLNKVNRRSPDTRIMVSYHTDSSKDMIEKLDEMLKANADIVKVACNYKDEKNFFKDLIEIAQRKEISGKPVLFIPMGKSFLRVISAYYVSDMVYAKYDKETAMGQPDPDYYNKAFSLFNYIG", "protein production": "failed"},
      {"sequence": "MPIKARETDMATRFKGLSAFPITPADEAGRVDIEAFSALIARLDAAEVDSVGILGSTGIYMYLTREERRRAIEAAATILRGRRTLMAGIGALRTDEAVALAKDAEAAGADALLLAPVSYTPLTQEEAYHHFAAVAGATALPLAIYNNPTTTRFTFSDELLVRLAYIPNIRAIKMPLPADADYAGELARLRPKLSDDFAIGYSGDWGCTDATLAGGDTWYSVVAGLLPVPALQLMRAAQAGNAEEAKRLDATFQPLWALFKEFGSIRVIYAAANILSLTVSEPPRPILPLTSAERQRVEEALEALSALETAP", "protein production": "not failed"},
      {"sequence": "MPILIVAVGVLILLFLIIKVKLNTFVSLIVVSFLVAIGLGMDINKIVLSIETGIGGQLGHLALVFGLGAMLGRLVSDAGGGYRIAITLIDKFGRKRIQAAVVVASFIIGIALFFEVGLVLLIPIVYAIAKELKMPFLYLGIPMAAALNVTHGFLPPHPAPTAISVAYGAHIGQVLLFGIIIAVPTTVIAGPLFNKFAMKRFPGAYQKHGNLSGLGPRKEFQLDETPGFAISAVTSLFPVIFMAMATIFSLLLSEHSKGKDIIEFIGTPGTAMLISLLLALYTMGYARKISMQEIGRSISESISQIAMMLLIIGGGGAFKQVLIDGGVGDYVADFFRQTNMSPLFVAWTIAAVLRLCLGSATVAALTTAGMAAPLMEAGSVNPALMVLATGAGSVIACHVNDAGFWMVKEFFGLSMKETFQTWTLLTTVLSVTGLGCVLLAGLVM", "protein production": "failed"},
      {"sequence": "MPIMGSSVYITVELAIAVLAILGNVLVCWAVWLNSNLQNVTNYFVVSLAAADIAVGVLAIPFAITISTGFCAACHGCLFIACFVLVLTQSSIFSLLAIAIDRYIAIRIPLRYNGLVTGTRAKGIIAICWVLSFAIGLTPMLGWNNCGQPKEGKNHSQGCGEGQVACLFEDVVPMNYMVYFNFFACVLVPLLLMLGVYLRIFLAARRQLKQMESQPLPGERARSTLQKEVHAAKSLAIIVGLFALCWLPLHIINCFTFFCPDCSHAPLWLMYLAIVLSHTNSVVNPFIYAYRIREFRQTFRKIIRSHVLRQQEPFKAAGTSARVLAAHGSDGEQVSLRLNGHPPGVWANGSAPHPERRPNGYALGLVSGGSAQESQGNTGLPDVELLSHELKGVCPEPPGLDDPLAQDGAGVS", "protein production": "not failed"},
      {"sequence": "MPISNPCFTSFTQPIDGYTLPEKFTFPFCYEPHPLCELAAEELQRHLEAQQEWHHNFGLSGDKSNAIGKMFGVLLVKAPTGEIGYLSAFSGKIADSNHLPYFVPPVFDMLEEDGFFKTELAEITEINATIKQLEANPQLSHLATSIQSETTASLQQIEIQRQVMIEGRKSRKAQRAAAEITAQDGTEKSAEELEQLKVVLGKESVKEKNTLRDIKLIWDEKINALQCQLNELEDALNELKTKRKNLSNGLQKKLFQQYKFLNTHGIEKDLNDIFKDTPNQIPPAGSGECAAPKLLQYAFAHGFTPLALAEFWWGIAPKSEIRQHKKFYASCQSKCQPILGHMLDGIEMDENPLLINPAEGKDLEIVYEDEFMVVVNKPADFLSVPGKNIHDSVYARIQQRYPDATGGLIIHRLDMATSGLLVLGLTPKAHKRLQQQFINRTVEKRYTALLDGVLEQDEGLITLPMRGDLYDRPRQLVCFEHGKPAETTYQVIERKENKTKVYLYPKTGRTHQLRVHCAHYLGLNMPITGDGLYGKKANRLHLHAGYLSLIHPITKEPMEFNVEAEF", "protein production": "not failed"},
      {"sequence": "MPKDNEEPLVKIPEFDERKFLFDEKERAKSIVIIFIIGAIVGSISGYFQLIGYWYLSLILILVVLLFSEYILKGLGVQVSKKTSHRILLVGEFLLTWLVFWILVLNPPLNHVSGPEIANLQMYSNNVWTSIVEKNGVYNIPFGSATSGTVSLRVYMFAYSGVVSYKVMAYQSSYAPAVIPSHLNDNYLYFNLTDVHYGSTYYVQVYGSTTVNGSNLTSEVSYTLYAE", "protein production": "failed"}
    ]}
  ]
}
